Reference: publication PMC10397247
Values belong to the binder of their own block, whether it stands above or below them.

Assays:
4H3070-bN = target: T1, 4H3070-bN; assay: two-hybrid library CCNG1; details: mean of both orientations;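 note: natural log of median RNA to DNA barcode read ratio; higher means stronger binding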
T1 chain: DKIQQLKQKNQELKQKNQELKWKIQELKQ

4H496-bN = target: T2, 4H496-bN; assay: two-hybrid library CCNG1;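 note: natural log of median RNA to DNA barcode read ratio; higher means stronger binding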
T2 chain: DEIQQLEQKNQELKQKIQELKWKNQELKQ

4H3632-bN = target: T3, 4H3632-bN; assay: two-hybrid library CCNG1;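 note: natural log of median RNA to DNA barcode read ratio; higher means stronger binding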
T3 chain: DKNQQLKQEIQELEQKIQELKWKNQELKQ

4H342-bN = target: T4, 4H342-bN; assay: two-hybrid library CCNG1;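 note: natural log of median RNA to DNA barcode read ratio; higher means stronger binding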
T4 chain: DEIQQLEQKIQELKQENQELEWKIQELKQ

4H2699-AA = target: T5, 4H2699-AA; assay: two-hybrid library CCmax; details: mean of both orientations;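 note: natural log of median RNA to DNA barcode read ratio; higher means stronger binding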
T5 chain: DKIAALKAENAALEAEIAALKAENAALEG

4H63-AA = target: T6, 4H63-AA; assay: two-hybrid library CCmax; details: mean of both orientations;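 note: natural log of median RNA to DNA barcode read ratio; higher means stronger binding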
T6 chain: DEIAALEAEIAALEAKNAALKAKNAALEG

4H2580-AA = target: T7, 4H2580-AA; assay: two-hybrid library CCmax; details: mean of both orientations
T7 chain: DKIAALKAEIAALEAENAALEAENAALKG

4H3595-AA = target: T8, 4H3595-AA; assay: two-hybrid library CCmax; details: mean of both orientations
T8 chain: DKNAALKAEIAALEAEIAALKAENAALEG

4H1360-AA = target: T9, 4H1360-AA; assay: two-hybrid library CCmax
T9 chain: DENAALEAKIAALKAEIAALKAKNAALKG

4H2621-AA = target: T10, 4H2621-AA; assay: two-hybrid library CCmax; details: mean of both orientations
T10 chain: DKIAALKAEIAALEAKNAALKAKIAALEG

4H1454-AA = target: T11, 4H1454-AA; assay: two-hybrid library CCmax; details: mean of both orientations
T11 chain: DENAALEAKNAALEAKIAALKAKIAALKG

4H483-AA = target: T12, 4H483-AA; assay: two-hybrid library CCmax; details: mean of both orientations
T12 chain: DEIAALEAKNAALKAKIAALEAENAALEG

4H380-AA = target: T13, 4H380-AA; assay: two-hybrid library CCmax; details: mean of both orientations
T13 chain: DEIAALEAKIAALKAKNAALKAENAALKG

4H446-AA = target: T14, 4H446-AA; assay: two-hybrid library CCmax; details: mean of both orientations
T14 chain: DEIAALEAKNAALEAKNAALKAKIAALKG

4H2903-AA = target: T15, 4H2903-AA; assay: two-hybrid library CCmax; details: mean of both orientations
T15 chain: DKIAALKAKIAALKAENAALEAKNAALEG

4H1913-AA = target: T16, 4H1913-AA; assay: two-hybrid library CCmax; details: mean of both orientations
T16 chain: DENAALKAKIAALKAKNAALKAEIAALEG

4H3129-AA = target: T17, 4H3129-AA; assay: two-hybrid library CCmax; details: mean of both orientations
T17 chain: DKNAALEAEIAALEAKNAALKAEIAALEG

4H464-AA = target: T18, 4H464-AA; assay: two-hybrid library CCmax; details: mean of both orientations
T18 chain: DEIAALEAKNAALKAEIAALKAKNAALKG

4H249-AA = target: T19, 4H249-AA; assay: two-hybrid library CCmax; details: mean of both orientations
T19 chain: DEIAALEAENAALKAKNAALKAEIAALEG

4H2961-AA = target: T20, 4H2961-AA; assay: two-hybrid library CCmax; details: mean of both orientations
T20 chain: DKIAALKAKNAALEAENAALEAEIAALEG

4H3414-AA = target: T21, 4H3414-AA; assay: two-hybrid library CCmax; details: mean of both orientations
T21 chain: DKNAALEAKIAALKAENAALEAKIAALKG

4H3049-AA = target: T22, 4H3049-AA; assay: two-hybrid library CCmax; details: mean of both orientations
T22 chain: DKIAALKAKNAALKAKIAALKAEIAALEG

4H1558-AA = target: T23, 4H1558-AA; assay: two-hybrid library CCmax; details: mean of both orientations
T23 chain: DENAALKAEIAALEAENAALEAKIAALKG

4H3969-AA = target: T24, 4H3969-AA; assay: two-hybrid library CCmax; details: mean of both orientations
T24 chain: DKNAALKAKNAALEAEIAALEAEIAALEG

4H3629-AA = target: T25, 4H3629-AA; assay: two-hybrid library CCmax; details: mean of both orientations
T25 chain: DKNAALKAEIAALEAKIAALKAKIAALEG

4H3782-AA = target: T26, 4H3782-AA; assay: two-hybrid library CCmax; details: mean of both orientations
T26 chain: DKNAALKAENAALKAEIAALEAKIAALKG

4H2774-AA = target: T27, 4H2774-AA; assay: two-hybrid library CCmax; details: mean of both orientations
T27 chain: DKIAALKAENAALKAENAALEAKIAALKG

4H3939-AA = target: T28, 4H3939-AA; assay: two-hybrid library CCmax; details: mean of both orientations
T28 chain: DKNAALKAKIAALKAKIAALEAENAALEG

4H341-AA = target: T29, 4H341-AA; assay: two-hybrid library CCmax; details: mean of both orientations
T29 chain: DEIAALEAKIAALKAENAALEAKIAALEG

4H2728-AA = target: T30, 4H2728-AA; assay: two-hybrid library CCmax; details: mean of both orientations
T30 chain: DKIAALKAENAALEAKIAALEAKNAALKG

P8bHq = target: T31, P8bHq; assay: two-hybrid library CCNG1
T31 chain: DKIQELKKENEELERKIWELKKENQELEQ

P6bHq = target: T32, P6bHq; assay: two-hybrid library CCNG1
T32 chain: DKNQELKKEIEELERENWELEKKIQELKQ

P2bHq = target: T33, P2bHq; assay: two-hybrid library CCNG1
T33 chain: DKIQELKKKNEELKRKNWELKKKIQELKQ

P4bHq = target: T34, P4bHq; assay: two-hybrid library CCNG1
T34 chain: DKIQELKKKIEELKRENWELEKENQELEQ

P9bHq = target: T35, P9bHq; assay: two-hybrid library CCNG1
T35 chain: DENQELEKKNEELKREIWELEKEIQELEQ

P7bHq = target: T36, P7bHq; assay: two-hybrid library CCNG1
T36 chain: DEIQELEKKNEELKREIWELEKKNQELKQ

P5bHq = target: T37, P5bHq; assay: two-hybrid library CCNG1
T37 chain: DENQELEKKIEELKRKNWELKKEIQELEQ

interaction score (4H3070-bN): -1.41 | interaction score (4H496-bN): -1.31 | interaction score (4H3632-bN): -1.38 | interaction score (4H342-bN): 0.751
Binder: DKIQQLKQKNQELKQKNQELKWKIQELKQ [4H3070-bN]

interaction score (4H2699-AA): 0.416 | interaction score (4H63-AA): 0.265 | interaction score (4H2580-AA): 1.2 | interaction score (4H3595-AA): 2 | interaction score (4H1360-AA): -0.121 | interaction score (4H2621-AA): -1.11 | interaction score (4H1454-AA): -1.08 | interaction score (4H483-AA): -1.58 | interaction score (4H380-AA): -1.11 | interaction score (4H446-AA): -1.69 | interaction score (4H2903-AA): 0.0597 | interaction score (4H1913-AA): -1.61 | interaction score (4H3129-AA): -1.34 | interaction score (4H464-AA): -1.69 | interaction score (4H249-AA): -1.76 | interaction score (4H2961-AA): -1.52 | interaction score (4H3414-AA): -1.25 | interaction score (4H3049-AA): -0.108 | interaction score (4H1558-AA): -0.811 | interaction score (4H3969-AA): 0.163 | interaction score (4H3629-AA): 0.958 | interaction score (4H3782-AA): -0.0635 | interaction score (4H2774-AA): -1.2 | interaction score (4H3939-AA): 0.656 | interaction score (4H341-AA): 0.0278 | interaction score (4H2728-AA): -1.69
Binder: DENAALEAKIAALKAEIAALKAKNAALKG [4H1360-AA]

interaction score (P8bHq): 0.361 | interaction score (P6bHq): 1.33 | interaction score (P2bHq): 0.693 | interaction score (P4bHq): 0.0617 | interaction score (P9bHq): -1.74 | interaction score (P7bHq): 0.668 | interaction score (P5bHq): 0.419
Binder: DKIQELKKKNEELKRKNWELKKKIQELKQ [P2bHq]
